# Measurements from patent US20120094909A1 (Bristol-Myers Squibb, published 2012).
# Assays:
# [1] = molecular target: T1, human PCSK9 (proprotein convertase subtilisin kexin type 9) (human, UniProt Q8NBP7 31-692); assay: BLI Octet Red, 37 C
# T1 construct: Directly immobilized (SPR ProteOn), biotinylated (BLI), or in solution, depending on the assay; also called hPCSK9
# Procedure: (§1) Tips were then immersed into a buffer-only well for observation of Adnectin dissociation. Experiments were performed in a temperature controlled environment at either 25 or 37° C., and the oscillation speed was set at 1500 rpm.
# (§2) Binding interaction analysis was performed using proprietary software from Fortebio (Fortebio Data Analysis Software version 6.3.0.36). Global fits were performed for all samples, using a 1:1 binding model. The nature of these global fits constrained all values of concentration to a single pair of association and dissociation rates that were themselves constrained to each other. Affinities (KD), association and dissociation rates were averaged over the various loading levels used in the analysis.
# [2] = molecular target: T1, human PCSK9 (proprotein convertase …); assay: FRET, competitor ATI001125
# From the text: (§3) Table 11 summarizes the overall data from these three FRET assays.
# [3] = molecular target: T1, human PCSK9 (proprotein convertase …); assay: FRET, competitor EGFA peptide
# From the text: as §3
# cynomolgus monkey PCSK9 = cynomolgus monkey PCSK9 (cynomolgus monkey, UniProt A0A7N9D9N8 150-747); assay: FRET, competitor EGFA peptide
# From the text: as §3
# [4] = molecular target: T1, human PCSK9 (proprotein convertase …); assay: BLI, biotinylated hPCSK9 on sensor tips
# Procedure: as §1, §2
# [5] = molecular target: T1, human PCSK9 (proprotein convertase …); assay: FRET direct binding, anti-his6 antibody
# From the text: as §3
# [6] = molecular target: T2, human PCSK9 (proprotein convertase subtilisin kexin type 9) (human, UniProt Q8NBP7 31-692); assay: BLI (Octet Red), 37 C
# T2 construct: immobilized directly (ProteOn), biotinylated (Octet) or in solution, according to the assay; also called hPCSK9; PCSK9-AF647 (labelled form)
# Procedure: as §1, §2
# [7] = molecular target: T2, human PCSK9 (proprotein convertase …); assay: cell-based or functional assay
# [8] = molecular target: T2, human PCSK9 (proprotein convertase …); assay: PCSK9:EGFA FRET, competitor EGFA peptide
Binder,Kd [1] [nM],IC50 [2] [nM],EC50 [3] [nM],IC50 [3] [nM],EC50 (cynomolgus monkey PCSK9) [nM],Kd [4] [nM],koff [4] [s⁻¹],kon [4] [M⁻¹ s⁻¹],EC50 [5] [nM],Kd [6] [nM],LDLR Depletion (% inhibition at 75 nM) [7] [%],EC50 [8] [nM]
"2382B09 (designed binder, Anti-PCSK9 Adnectin, His6-tagged) MGVSDVPRDLEVVAATPTSLLISWDAPADAYGYYRITYGETGGNSPVQEFTVPVSKGTATISGLKPGVDYTITVYAVEFDYPGSGYYHRPISINYRTEIDKPSQHHHHHH",0.656,0.6,3.8,3.8,37.2,0.656,0.000291,451000,4,,,
"2382C09 (designed binder, Anti-PCSK9 Adnectin, His6-tagged) MGVSDVPRDLEVVAATPTSLLISWDAPAEGYGYYRITYGETGGNSPVQEFTVPVSKGTATISGLKPGVDYTITVYAVEFDFPGSGYYHRPISINYRTEIDKPSQHHHHHH",0.757,0.6,3.5,3.5,23.9,0.757,0.000233,349000,2.9,,,
"2382B10 (designed binder, Anti-PCSK9 Adnectin, His6-tagged) MGVSDVPRDLEVVAATPTSLLISWDAPADAYGYYRITYGETGGNSPVQEFTVPSSKGTATISGLKPGVDYTITVYAVEYDFPGSGYYHRPISINYRTEIDKPSQHHHHHH",2.35,0.5,3,3,18.1,2.35,0.000977,394000,3.1,,,
"2382H09 (designed binder, Anti-PCSK9 Adnectin, His6-tagged) MGVSDVPRDLEVVAATPTSLLISWDAPAAAYGYYRITYGETGGNSPVQEFTVPSSKGTATISGLKPGVDYTITVYAVEFDFPGSGYYHRPISINYRTEIDKPSQHHHHHH",1.86,0.3,0.9,0.9,17.9,1.86,0.000483,251000,3.6,,,
"2382D09 (designed binder, Anti-PCSK9 Adnectin, His6-tagged) MGVSDVPRDLEVVAATPTSLLISWDAPAEGYGYYRITYGETGGNSPVQEFTVPVSKGTATISGLKPGVDYTITVYAVEFDFPGAGYYHRPISINYRTEIDKPSQHHHHHH",0.304,0.4,2.6,2.6,13.9,0.304,0.000164,533000,3.7,,,
"2451H07 (designed binder, Anti-PCSK9 Adnectin, His6-tagged) MGITDVPRDLEVVAATPTSLLISWNPPDVNYGYYRITYGETGGNSPLQEFTVPVSKGTATISGLKPGVDYTITVYAVEYPYAHAGYYHRPISINYRTEIDKPSQHHHHHH",2.08,0.2,0.2,0.2,27.1,2.08,0.00094,448000,13.2,,,
2451H07 (designed binder) MGITDVPRDLEVVAATPTSLLISWNPPDVNYGYYRITYGETGGNSPLQEFTVPVSKGTATISGLKPGVDYTITVYAVEYPYAHAGYYHRPISINYRTEIDKPSQHHHHHH,,,,,,,,,,2.08,88.8,0.2
"2381D04 (designed binder, Anti-PCSK9 Adnectin, His6-tagged) MGVSDVPRDLEVVAATPTSLLISWEPFSRLPGGGEYYRITYGETGGNSPLQQFTVPGSKGTATISGLKPGVDYTITVYAVEFPYDHSGYYHRPISINYRTEIDKPSQHHHHHH",0.237,0.5,2.9,2.9,12,0.237,6.9e-05,266000,3.7,,,
"2381B02 (designed binder, Anti-PCSK9 Adnectin, His6-tagged) MGVSDVPRDLEVVAATPTSLLISWEPFSRLPGGGEYYRITYGETGGNSPLQQFTVPGSKGTATISGLKPGVDYTITVYAVEYPYDYSGYYHRPISINYRTEIDKPSQHHHHHH",3.29,0.5,2.5,2.5,9.8,3.29,0.000831,265000,8.4,,,
2382G04 (designed binder) MGVSDVPRDLEVVAATPTSLLISWDAPAGGGYGYYRITYGETGGNSPVQEFTVPSSKGTATISGLKPGVDYTITVYAVEFDFPGAGYYHRPISINYRTEIDKPSQHHHHHH,,,,,,,,,,1.11,146,2.9
2382E03 (designed binder) MGVSDVPRDLEVVAATPTSLLISWDAPAGDGYGYYRITYGETGGNSPVQEFTVPVSKGTATISGLKPGVDYTITVYAVEFDFPGAGYYHRPISINYRTEIDKPSQHHHHHH,,,,,,,,,,2.94,89.5,2.4
2382H03 (designed binder) MGVSDVPRDLEVVAATPTSLLISWDAPAEGAYGYYRITYGETGGNSPVQEFTVPVSKGTATISGLKPGVDYTITVYAVEYPYPFAGYYHRPISINYRTEIDKPSQHHHHHH,,,,,,,,,,0.677,102,3.4

# The next lines start with the values.
Kd [1] [nM],IC50 [2] [nM],EC50 [3] [nM],IC50 [3] [nM],EC50 (cynomolgus monkey PCSK9) [nM],Kd [4] [nM],koff [4] [s⁻¹],kon [4] [M⁻¹ s⁻¹],EC50 [5] [nM],Kd [6] [nM],LDLR Depletion (% inhibition at 75 nM) [7] [%],EC50 [8] [nM],Binder
1.4,0.4,2.6,2.6,18.2,1.4,0.000382,288000,4.6,,,,"2382H10 (designed binder, Anti-PCSK9 Adnectin, His6-tagged) MGVSDVPRDLEVVAATPTSLLISWDAPAGGYGYYRITYGETGGNSPVQEFTVPVSKGTATISGLKPGVDYTITVYAVEFDFPGSGYYHRPISINYRTEIDKPSQHHHHHH"
,,,,,,,,,4.54,72.2,2.4,2382F05 (designed binder) MGVSDVPRDLEVVAATPTSLLISWDAPAEAGKHYGYYRITYGETGGNSPVQEFTVPVSKGTATISGLKPGVDYTITVYAVEFDFPGAGYYHRPISINYRTEIDKPSQHHHHHH
,,,,,,,,,1.27,89.4,1.2,2451C06 (designed binder) MGVSDVPRDLEVVAATPTSLLISWDAPAGAASYGYYRITYGETGGNSPVQEFTVPVSKGTATISGLKPGVDYTITVYAVEFPFPGAGYYHRPISINYRTEIDKPSQHHHHHH
0.527,0.5,2.4,2.4,17.3,0.527,0.00016,309000,4.2,,,,"2381B04 (designed binder, Anti-PCSK9 Adnectin, His6-tagged) MGVSDVPRDLEVVAATPTSLLISWEPFSRLPGGGEYYRITYGETGGNSPLQQFTVPGSKGTATISGLKPGVDYTITVYAVEYPYEHSGYYHRPISINYRTEIDKPSQHHHHHH"
,,,,,,,,,1.53,80.4,3.3,2382D03 (designed binder) MGVSDVPRDLEVVAATPTSLLISWDAPADEAYGYYRITYGETGGNSPVQEFTVPVSKGTATISGLKPGVDYTITVYAVEFDFPGAGYYHRPISINYRTEIDKPSQHHHHHH
1.59,0.8,4,4,26.5,1.59,0.000522,323000,< 1,,,,"2381F11 (designed binder, Anti-PCSK9 Adnectin, His6-tagged) MGVSDVPRDLEVVAATPTSLLISWDAPADGGYGYYRITYGETGGNSPVQEFTVPVSKSTATISGLKPGVDYTITVYAVEYTFPGAGYYHRPISINYRTEIDKPSQHHHHHH"
,,,,,,,,,0.604,104,2.8,2382E05 (designed binder) MGVSDVPRDLEVVAATPTSLLISWDAPAEGGYGYYRITYGETGGNSPVQEFTVPVSKGTATISGLKPGVDYTITVYAVEFDFPGAGYYHRPISINYRTEIDKPSQHHHHHH
4.11,1,2.6,2.6,27.1,4.11,0.00094,213000,4.1,,,,"2381B08 (designed binder, Anti-PCSK9 Adnectin, His6-tagged) MGVSDVPRDLEVVAATPTSLLISWDAPADGGYGYYRITYGETGGNSPVQEFTVPSSKGTATISGLKPGVDYTITVYAVEYTFPGAGYYHRPISINYRTEIDKPSQHHHHHH"
